According to article PMC4893818, “Folliculin directs the formation of a Rab34–RILP complex to control the nutrient‐dependent dynamic distribution of lysosomes” (EMBO Reports, 2016):

Tests used:
[1] = biological target: T1, GST-RILP (full ORF) (human, UniProt Q96NA2 1-401); test: pull-down; 0.1 nmol GST-RILP prebound to glutathione beads, lysate of HeLa cells in normal growth or starved 4 h; 25 mM HEPES pH 7.5, 150 mM NaCl, 2 mM MgCl2, 0.2% NP-40, 0.2% Triton X-100; Western blot; conditions: one partner purified
T1 construct: also called GST-RILP resin; source: E. coli BL21(DE3), purified (glutathione beads, eluted with glutathione, dialysed); not shown: GST, N-terminal, kept
T1 sequence (looked up): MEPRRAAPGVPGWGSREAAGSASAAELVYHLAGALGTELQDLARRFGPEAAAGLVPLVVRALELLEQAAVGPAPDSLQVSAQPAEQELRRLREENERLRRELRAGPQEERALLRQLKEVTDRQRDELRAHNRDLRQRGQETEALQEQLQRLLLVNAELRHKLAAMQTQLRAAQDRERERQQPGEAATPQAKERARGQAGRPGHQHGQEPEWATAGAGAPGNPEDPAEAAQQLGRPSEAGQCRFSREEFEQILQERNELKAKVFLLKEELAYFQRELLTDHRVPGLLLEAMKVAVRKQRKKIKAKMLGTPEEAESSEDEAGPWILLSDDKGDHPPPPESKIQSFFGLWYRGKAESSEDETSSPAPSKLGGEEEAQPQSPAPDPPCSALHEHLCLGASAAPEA

[2] = biological target: T1, GST-RILP (full ORF); test: pull-down; purified proteins: 0.2 nmol GST-RILP on glutathione beads; Rab34 proteins at 200 nM together with FLCN-DENN (1 uM; titrated 0 to 10 uM; 0.5 uM for wild-type Rab34); HEPES pH 7.5, 250 mM NaCl, 2 mM MgCl2, 1 mM GDP or GTPγS; 14 h at 4 °C; anti-His Western blot; conditions: both partners purified
[3] = biological target: T1, GST-RILP (full ORF); test: pull-down; GST-RILP or GST on beads, His-FLCN-DENN in E. coli extract; Western blot; conditions: one partner purified

B1: endogenous Rab34 (natural protein, UniProt Q9BZG1 1-259, looked up)
chain: MNILAPVRRDRVLAELPQCLRKEAALHGHKDFHPRVTCACQEHRTGTVGFKISKVIVVGDLSVGKTCLINRFCKDTFDKNYKATIGVDFEMERFEVLGIPFSLQLWDTAGQERFKCIASTYYRGAQAIIIVFNLNDVASLEHTKQWLADALKENDPSSVLLFLVGSKKDLSTPAQYALMEKDALQVAQEMKAEYWAVSSLTGENVREFFFRVAALTFEANVLAELEKSGARRIGDVVRINSDDSNLYLTASKKKPTCCP
notes: Rab34 small GTPase, endogenous in human cell lines; source: endogenous, HeLa lysate; endogenous, lysates of UOK257, UOK257-2, UOK257-FLCN and UOK257-FLCNΔDENN cells
fold increase of Rab34 retained on GST-RILP, starved against normal growth [1]: ~2 fold

B2: His-tagged Rab34 WT (natural protein, mouse, UniProt Q64008 1-259, looked up)
chain: MNILAPVRRDRVLAELPQCLKKEAALHVRKDFHPRVTCACQEHRTGTVGFKISKVIVVGDLSVGKTCLINRFCKDTFDKNYKATIGVDFEMERFEVLGVPFSLQLWDTAGQERFKCIASTYYRGAQAIIIVFNLNDVASLEHTKQWLTDALKENDPSNVLLFLVGSKKDLSTPAQYSLMEKDALKVAQEIKAEYWAVSSLTGENVREFFFRVAALTFEANVLADVEKSGARHIADVVRINSDDKNLYLTASKKKATCCP
notes: Rab34, mouse, from an I.M.A.G.E. clone, in pET28 His-thrombin; loaded with GTPγS or GDP before the pull-down; also called wild-type Rab34; purified Rab34; source: E. coli, purified (His-trap FF, imidazole gradient)
binding result [2]: binds

B3: His-tagged Rab34 Q111L (natural protein, mouse, UniProt Q64008 1-259, looked up)
chain: MNILAPVRRDRVLAELPQCLKKEAALHVRKDFHPRVTCACQEHRTGTVGFKISKVIVVGDLSVGKTCLINRFCKDTFDKNYKATIGVDFEMERFEVLGVPFSLQLWDTAGLERFKCIASTYYRGAQAIIIVFNLNDVASLEHTKQWLTDALKENDPSNVLLFLVGSKKDLSTPAQYSLMEKDALKVAQEIKAEYWAVSSLTGENVREFFFRVAALTFEANVLADVEKSGARHIADVVRINSDDKNLYLTASKKKATCCP
notes: Rab34, mouse, from an I.M.A.G.E. clone, in pET28 His-thrombin; assayed in the presence of 1 mM GTPγS; also called GTP hydrolysis-deficient (Q111L) Rab34; source: E. coli, purified (His-trap FF, imidazole gradient)
fold enhancement of binding to RILP in the presence of FLCN-DENN (1 uM) against without it [2]: ~2.7 fold

B4: His-tagged human FLCN-DENN domain (amino acids 341-556) (domain or fragment, UniProt Q8NFG4 341-556, looked up)
chain: RKLPVFKSLRHMRQVLGAPSFRMLAWHVLMGNQVIWKSRDVDLVQSAFEVLRTMLPVGCVRIIPYSSQYEEAYRCNFLGLSPHVQIPPHVLSSEFAVIVEVHAAARSTLHPVGCEDDQSLSKYEFVVTSGSPVAADRVGPTILNKIEAALTNQNLSVDVVDQCLVCLKEEWMNKVKVLFKFTKVDSRPKEDTQKLLSILGASEEDNVKLLKFWMTG
notes: folliculin (FLCN), human, C-terminal DENN domain, amino acids 341-556, in pET28 His-thrombin; vector pET28 His-thrombin; detected by an anti-His antibody; also called His-FLCN-DENN; source: E. coli, purified (His-trap FF, imidazole gradient)
binding result [3]: binds
